The term Km denotes the concentration of substrate that gives half-maximal velocity. As a reminder, the kcat is the maximal rate divided by the concentration of active sites. Broadly, the kcat/Km is the second-order rate constant that governs catalysis at low substrate concentration.

The record followed here is PMC3520923, “Expression, Characterization, and Cellular Localization of Knowpains, Papain-Like Cysteine Proteases of the Plasmodium knowlesi Malaria Parasite” (PLoS ONE, 2012).

The subject of data set [1] is Cc1cc(=O)oc2cc(NC(=O)[C@H](CCCNC(=N)N)NC(=O)[C@H](CC(C)C)NC(=O)OCc3ccccc3)ccc12. Put plainly: purified protein. To be noted: 100 mM sodium acetate pH 5.5, 10 mM DTT, 37°C.
Data set [2] has as its system Cc1cc(=O)oc2cc(NC(=O)[C@H](CCCNC(=N)N)NC(=O)[C@H](CCCNC(=N)N)NC(=O)OCc3ccccc3)ccc12. Put plainly: purified protein. To be noted: 100 mM sodium acetate pH 5.5, 10 mM DTT, 37°C.
Text: (§1) fluorogenic AMC release, initial rates, ORIGIN fit on knowpain-4 (KP4)
Data set [3] concerns Cc1cc(=O)oc2cc(NC(=O)[C@H](CCCNC(=N)N)NC(=O)[C@H](Cc3ccccc3)NC(=O)OCc3ccccc3)ccc12. Put plainly: purified protein. As to conditions: 100 mM sodium acetate pH 5.5, 10 mM DTT, 37°C.
Text: as §1
Data set [4] deals with T1, knowpain-3 (KP3) (Plasmodium knowlesi, UniProt A0A384KX24).
T1 construct: gene PKNH_0912900
Put plainly: inhibition of Z-LR-AMC hydrolysis, fluorescence. As to conditions: 10 µM inhibitor, 100 nM enzyme, 5 min preincubation, sodium acetate pH 5.5, 25 µM Z-LR-AMC; covalent. It is filed as biochemical.

Data set [5] addresses T2, knowpain-4 (KP4) (Plasmodium knowlesi, UniProt A0A384LCH8).
T2 construct: gene PKNH_0912800
Put plainly: inhibition of Z-LR-AMC hydrolysis, fluorescence. It is filed as biochemical. To be noted: 10 µM inhibitor, 10 nM enzyme, 5 min preincubation, sodium acetate pH 5.5, 25 µM Z-LR-AMC; covalent.

T1 sequence (A0A384KX24 entry or part of it): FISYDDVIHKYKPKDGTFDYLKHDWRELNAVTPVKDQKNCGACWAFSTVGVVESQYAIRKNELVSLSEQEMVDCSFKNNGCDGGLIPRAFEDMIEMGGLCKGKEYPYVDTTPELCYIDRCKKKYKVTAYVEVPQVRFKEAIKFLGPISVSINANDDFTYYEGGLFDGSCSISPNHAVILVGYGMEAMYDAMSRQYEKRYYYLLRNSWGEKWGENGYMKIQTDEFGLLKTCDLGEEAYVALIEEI
T2 sequence (A0A384LCH8 entry or part of it): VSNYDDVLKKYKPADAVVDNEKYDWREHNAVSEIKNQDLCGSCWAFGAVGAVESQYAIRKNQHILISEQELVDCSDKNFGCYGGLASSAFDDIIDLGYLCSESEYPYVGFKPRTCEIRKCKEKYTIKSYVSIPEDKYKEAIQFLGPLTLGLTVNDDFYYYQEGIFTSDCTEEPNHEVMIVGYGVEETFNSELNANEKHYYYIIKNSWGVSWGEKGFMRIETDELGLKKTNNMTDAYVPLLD

With “knowpain-4 (KP4) (Plasmodium knowlesi strain H)”, in data set [1], the Michaelis-Menten constant (Km) amounted to 4.20 ± 0.25 µM, the kcat was 0.0129 s⁻¹ and the kcat/Km is 3070 M⁻¹ s⁻¹. Further, in data set [2], the Km was 2.13 ± 0.17 µM, the kcat was 0.0435 s⁻¹ and the kcat/Km was determined as 20500 M⁻¹ s⁻¹. Moreover, in data set [3], the Km was 4.20 ± 0.19 µM, the turnover number (kcat) is 0.0062 s⁻¹ and the kcat/Km worked out at 1470 M⁻¹ s⁻¹.

Take `CC(C)C[C@H](NC(=O)[C@@H]1O[C@H]1C(=O)O)C(=O)NCCCCN=C(N)N` [E64, trans-epoxysuccinyl-L-leucylamido-(4-guanidino) butane]: the “% of control activity at 10 μM” value in data set [4] was “blocked by the cysteine protease inhibitors E64 and leupeptin”; in data set [5], “blocked by the cysteine protease inhibitors E64 and leupeptin”.

Turning to “knowpain-3 (KP3) (Plasmodium knowlesi strain H)”, in data set [1], the Km amounted to 30.56 ± 1.23 µM, the kcat is 0.0156 s⁻¹ and the kcat/Km came out at 511 M⁻¹ s⁻¹.

For the compound “knowpain-2 (KP2) (Plasmodium knowlesi strain H)”, in data set [1], the Km worked out at 14.26 ± 0.27 µM, the kcat worked out at 0.0011 s⁻¹ and the kcat/Km is 75.6 M⁻¹ s⁻¹.
